According to patent US20130288372A1 (Bristol-Myers Squibb, published 2013):
Where a chain is given by its changes, count along the chain named.

T1: Human IL-23 (human, UniProt Q9NPF7 20-189; P29460 23-328)
T1 sequence (looked up) 1: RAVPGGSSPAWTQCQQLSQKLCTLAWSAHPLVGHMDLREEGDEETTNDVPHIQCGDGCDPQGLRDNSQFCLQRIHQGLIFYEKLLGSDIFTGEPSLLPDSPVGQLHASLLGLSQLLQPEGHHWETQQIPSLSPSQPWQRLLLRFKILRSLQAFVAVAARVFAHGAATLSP
T1 sequence (looked up) 2: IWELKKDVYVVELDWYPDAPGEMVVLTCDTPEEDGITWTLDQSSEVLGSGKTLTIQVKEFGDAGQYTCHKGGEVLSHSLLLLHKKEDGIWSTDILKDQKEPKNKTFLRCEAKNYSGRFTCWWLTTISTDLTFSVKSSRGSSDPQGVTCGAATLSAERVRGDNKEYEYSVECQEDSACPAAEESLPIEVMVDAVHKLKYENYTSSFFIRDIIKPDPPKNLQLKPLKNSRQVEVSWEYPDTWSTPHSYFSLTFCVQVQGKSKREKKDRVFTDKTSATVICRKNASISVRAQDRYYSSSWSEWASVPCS

B1: Anti-IL-23 Adnectin 1866F10 (designed binder)
chain: MGVSDVPRDLEVVAATPTSLLISWDHDYPYRRYYRITYGETGGNSPVQEFTVPRNINTATISGLKPGVDYTITVYAVTSTLKYDIQYSPISINYRTEIDKPSQHHHHHH
B2: Anti-IL-23 Adnectin 1454B08 (designed binder)
chain: B1 chain with D25E, R54K, N55D, I56V, N57D, T80S, L81Y, I85M
notes: 10Fn3-based Adnectin expressed in E. coli followed by a HIS6 tag; Fn3 domain is positions 3-96 of the entry; also called Parent
B3: Anti-IL-23 Adnectin 1866D11 (designed binder)
chain: B1 chain with R54K, N55D, I56V, N57D, T80S, L81Y, S88P
B4: Anti-IL-23 Adnectin 1866C02 (designed binder)
chain: B1 chain with D27N, P29T, Y30W, R31Y, N55G, I56V, N57D, T80S, L81Y, S88P
B5: 1454B08 V75→Y (designed binder)
chain: B1 chain with D25E, R54K, N55D, I56V, N57D, V77Y, T80S, L81Y, I85M
notes: Point variant of 1454B08
B6: Anti-IL-23 Adnectin 1454D02 (designed binder)
chain: B1 chain with T80S, L81Y, I85M
notes: 10Fn3-based Adnectin expressed in E. coli followed by a HIS6 tag (captured by anti-His mAb in SPR)
B7: 1454B08 T35→E (designed binder)
chain: B1 chain with D25E, T37E, R54K, N55D, I56V, N57D, T80S, L81Y, I85M
notes: Point variant of 1454B08
B8: Anti-IL-23 Adnectin 1454E09 (designed binder)
chain: B1 chain with D25M, R54M, N55E, I56E, N57D, T80S, L81Y, I85M
notes: 10Fn3-based Adnectin expressed in E. coli followed by a HIS6 tag; Fn3 domain is positions 3-96 of the entry
B9: Anti-IL-23 Adnectin 1454F07 (designed binder)
chain: B1 chain with D25Y, D27M, P29S, N55D, I56V, N57D, T80S, L81Y, I85M
notes: as for B8
B10: Anti-IL-23 Adnectin 1454C03 (designed binder)
chain: B1 chain with H26M, D27Y, R31S, R54K, N55E, I56Y, N57D, T80S, L81Y, I85M
notes: as for B8
B11: Anti-IL-23 Adnectin 1454H11 (designed binder)
chain: B1 chain with D25E, N55E, I56D, N57S, T80S, L81Y, I85M
notes: as for B8
B12: 1454B08 V45→D (designed binder)
chain: B1 chain with D25E, V47D, R54K, N55D, I56V, N57D, T80S, L81Y, I85M
notes: Point variant of 1454B08
B13: 1454B08 Y73→N (designed binder)
chain: B1 chain with D25E, R54K, N55D, I56V, N57D, Y75N, T80S, L81Y, I85M
notes: Point variant of 1454B08
B14: 1454B08 Y73→Q (designed binder)
chain: B1 chain with D25E, R54K, N55D, I56V, N57D, Y75Q, T80S, L81Y, I85M
notes: Point variant of 1454B08; also called Tyr 73→Gln
B15: 1454B08 T35→N (designed binder)
chain: B1 chain with D25E, T37N, R54K, N55D, I56V, N57D, T80S, L81Y, I85M
notes: Point variant of 1454B08
B16: 1454B08 Y81→A (designed binder)
chain: B1 chain with D25E, R54K, N55D, I56V, N57D, T80S, L81Y, Y83A, I85M
notes: Point variant of 1454B08
B17: 1454B08 V45→Q (designed binder)
chain: B1 chain with D25E, V47Q, R54K, N55D, I56V, N57D, T80S, L81Y, I85M
notes: Point variant of 1454B08
B18: 1454B08 T35→D (designed binder)
chain: B1 chain with D25E, T37D, R54K, N55D, I56V, N57D, T80S, L81Y, I85M
notes: Point variant of 1454B08; also called Thr35→Asp
B19: Anti-IL-23 Adnectin 1454F09 (designed binder)
chain: B1 chain with D27N, P29S, N55H, I56T, N57D, T80S, L81Y, I85M
notes: as for B8
B20: 1454B08 P87→A (designed binder)
chain: B1 chain with D25E, R54K, N55D, I56V, N57D, T80S, L81Y, I85M, P89A
notes: Point variant of 1454B08
B21: Anti-IL-23 Adnectin 1454B05 (designed binder)
chain: B1 chain with D25Y, R54K, N55D, I56E, N57E, T80S, L81Y, I85M
notes: as for B8
B22: 1454B08 V75→K (designed binder)
chain: B1 chain with D25E, R54K, N55D, I56V, N57D, V77K, T80S, L81Y, I85M
notes: Point variant of 1454B08
B23: 1454B08 Y73→A (designed binder)
chain: B1 chain with D25E, R54K, N55D, I56V, N57D, Y75A, T80S, L81Y, I85M
notes: Point variant of 1454B08
B24: Anti-IL-23 Adnectin 1454F05 (designed binder)
chain: MGVSDVPRDLEVVAATPTSLLISWYMHYPYSRYYRITYGETGGNSPVQEFTVPKQHDTATISGLKPGVDYTITVYAVTSSYKYDMQYSPISINYRTEIDKPSQHHHHHH
notes: as for B8
B25: 1454B08 V75→Q (designed binder)
chain: B24 chain with Y25E, M26H, H27D, S31R, Q55D, H56V, V77Q
notes: Point variant of 1454B08
B26: 1454B08 T35→Q (designed binder)
chain: B24 chain with Y25E, M26H, H27D, S31R, T37Q, Q55D, H56V
notes: Point variant of 1454B08
B27: 1454B08 Y73→R (designed binder)
chain: B24 chain with Y25E, M26H, H27D, S31R, Q55D, H56V, Y75R
notes: Point variant of 1454B08
B28: 1454B08 V45→E (designed binder)
chain: B24 chain with Y25E, M26H, H27D, S31R, V47E, Q55D, H56V
notes: Point variant of 1454B08
B29: Anti-IL-23 Adnectin 1241A05 (designed binder)
chain: B24 chain with Y25N, M26H, H27N, P29S, S31Y, K54R, Q55G, H56V, D57A
notes: 10Fn3-based Adnectin expressed in E. coli followed by a HIS6 tag; Fn3 domain is positions 3-96 of the entry; also called Clone 1241A05
B30: 1454B08 Y28→A (designed binder)
chain: B24 chain with Y25E, M26H, H27D, Y30A, S31R, Q55D, H56V
notes: Point variant of 1454B08
B31: 1454B08 V45→N (designed binder)
chain: B24 chain with Y25E, M26H, H27D, S31R, V47N, Q55D, H56V
notes: Point variant of 1454B08

What was measured:
Human IL-23 [1] = biological target: T1, Human IL-23; test: cell-based or functional assay
Human IL-23 [2] = biological target: T1, Human IL-23; test: competitive ELISA, ratio of IC50 against parent 1454B08
Experimental: (§1) Adnectin variants were tested by ELISA for their ability to bind IL-23 in a manner that was competitive with the binding site of the native IL-23 receptor (IL-23R). Recombinant human IL-23R-Fc (R&D Systems, Minneapolis, Minn.) was coated overnight at 4° C. on a NUNC® Maxisorp plate (Thermo Fisher Scientific, Denmark) with 50 μL at 4 μg/mL in PBS. All washing was performed with PBST (PBS with 0.05% (w/v) Tween) using an automated plate washer (Biotek, Vt.). OptEIA buffer (BD Bioscience, CA) was used as block and assay diluent. Adnectin dilutions ranging from 200 nM to 28 pM were pre-incubated with 1 nM IL-23 for an hour before transferring to blocked IL-23R-Fc coated plates for 30 minutes. Bound IL-23 was detected via anti-IL-23 (GeneTex, CA) and anti-mouse-HRP (R&D Systems, MN) followed by TMB (3,3′,5,5′-tetramethylbenzidine) (BD Bioscience, CA) addition. Typical development time was 10 minutes. […] IC50s were generated from the average of four runs with an in-house curve fitting application.

Human IL-23 [3] = biological target: T1, Human IL-23; test: SPR (Biacore T100), Adnectin captured by anti-His mAb, IL-23 injected, 25 C
Experimental: The anti-His antibody, mAb050 (RnD Systems, MN) was diluted to 20 μg/mL in acetate, pH 5.0 and immobilized to ˜9000 RU on flow cells 1 and 2 of a CM5 chip surface (GE Healthcare, Piscataway, N.J.) according to the manufacturer's instructions. All surface plasmon experiments were conducted in HBS-EP (10 mM Hepes 150 mM NaCl 3 mM EDTA 0.05% Surfactant P20) at 25° C. IL-23 was injected over anti-His mAb captured Adnectins for 2 minutes followed by a 10 minute dissociation phase. Kinetic parameters were calculated using the T100. Biaevaluation.

Human IL-23 [4] = biological target: T1, Human IL-23; test: competitive ELISA: Adnectin pre-incubated with 1 nM IL-23, binding to coated IL-23R-Fc
Experimental: as §1

Molecule	pSTAT3 IC50 (nM) (Human IL-23 [1])	Activity (parent/mutant) (Human IL-23 [2])	Kd (Human IL-23 [3]) [nM]	koff (Human IL-23 [3]) [s⁻¹]	kon (Human IL-23 [3]) [M⁻¹ s⁻¹]	IC50 (Human IL-23 [4]) [nM]
anti-p19 polyclonal antibody (AF1716)	36.5	–	–	–	–	–
B1	0.06	–	–	–	–	–
B2	0.3	1	3.72	0.000409	110000	1
B3	0.03	–	–	–	–	–
B4	0.03	–	–	–	–	–
B5	–	0.4	–	–	–	2.2
B6	0.48	–	9.57	0.000438	45700	–
B7	–	1.7	–	–	–	0.6
B8	–	–	10.1	0.000569	56600	–
B9	–	–	9.43	0.000447	47400	–
B10	0.44	–	3.91	0.000468	120000	–
B11	0.45	–	2.8	0.000227	81000	–
B12	–	1.2	–	–	–	0.83
B13	–	0.8	–	–	–	1.2
B14	–	3.8	–	–	–	0.26
B15	–	0.6	–	–	–	1.7

Molecule	pSTAT3 IC50 (nM) (Human IL-23 [1])	Activity (parent/mutant) (Human IL-23 [2])	Kd (Human IL-23 [3]) [nM]	koff (Human IL-23 [3]) [s⁻¹]	kon (Human IL-23 [3]) [M⁻¹ s⁻¹]	IC50 (Human IL-23 [4]) [nM]
B16	–	0.03	–	–	–	35
B17	–	2.9	–	–	–	0.34
B18	–	0.02	–	–	–	49
B19	–	–	7.45	0.000928	125000	–
B20	–	0.1	–	–	–	8.3
B21	–	–	2.27	0.000677	298000	–
B22	–	0.2	–	–	–	5.7
B23	–	1.5	–	–	–	0.65
B24	–	–	4.75	0.000525	111000	–
B25	–	0.4	–	–	–	2.3
B26	–	1	–	–	–	1
B27	–	0.8	–	–	–	1.2
B28	–	1.9	–	–	–	0.51
B29	30.7	–	32.6	0.000236	7280	–
B30	–	0.08	–	–	–	13
B31	–	1.8	–	–	–	0.54
